Assays:
[1] = biological target: CyPet-XCTK2 (Xenopus) (UniProt P79955); assay: FRET or BRET
[2] = biological target: 6His-YPet-XCTK2-Tail (Xenopus) (UniProt P79955); assay: co-sedimentation
[3] = biological target: YPet-XCTK2 (Xenopus) (UniProt P79955); assay: FRET or BRET
[4] = biological target: microtubules; assay: co-sedimentation

6His-importin α-YPet (natural protein)
fold decrease of Kd with importin β against without importin β [1]: 5 fold

importin α-6His (natural protein)
percent decrease of the amount of YPet-XCTK2-Tail bound to MTs (1× importin α/β) [2]: 46%
percent decrease of the amount of YPet-XCTK2-Tail bound to MTs (4× importin α/β) [2]: 53%

importin α-CyPet (natural protein)
mean line scan CyPet lifetime (importin α-CyPet + Ran without YPet 1.68) [3]: 1.55 ns

B1: 6His-YPet-XCTK2-Tail (domain or fragment)
chain: DSTDKKVQVASRLPVPPKRKYVSNDENQEQMQRKRLRSSLESELPAVRVAASIATSKPRAAPVAALPKPQVIGRQSLAVMRPKNSGPGITSTSFSGKTKVSSSVTQPAAIGAEKKKRAA
fold increase of Kd with 4× importin α/β against no importin α/β [4]: 10 fold

Source: paper PMC7041689
